Measurements: the nanobody polyreactivity screen of Harvey et al. (2022)

Assay: yeast display, Sf9 membrane polyspecificity reagent, FACS + sequencing; frameworks hold sequencing errors
Outline: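 Using colony PCR, genes from sorted yeast display clones were amplified, then sequenced on MiSeq at 2 × 250 and filtered by CDR length. The clones had been stained with 10% biotinylated, detergent-solubilized Sf9 membrane reagent for 1 hour at 4 °C and sorted by FACS into low and high (top ~1%) gates on anti-HA and streptavidin fluorescence. Polyreactivity labels come from the gate of origin.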

Sequence | polyreactivity (PSR sort gate)
QVQLVESGGALVQAGVSLRLSCAASGSIFRFYAMGWNKQAPGKERELVAAITSGGSTNYADSVKGRFTISRDNEKNTVYLQMNSLKPEDTAVFYCAAELVFFFIFDYWGQGTQVTVSS | low polyreactivity
QVQLVESGGCIVQAGGSLRLSCAATGRTFYIYAMGWYRQPPGKESELVATITRGGSTNYADSVKGRFTSSRDNAKNTVYLQMNSLKPVDTAVYYCAAESYFTNWRNRYDYWGQGSQVTVSS | high polyreactivity
QVQLVESGGCIVQEGGSLRLSGAASGSTIRGNAMGWYRHAHGQEREFVADITRNGGRTYYADSVKGRFTISRDNAKNTVYLQMNSLKPEDTAVSYCAKRDAYFVSQRNMDYWGQGTQVTVSS | high polyreactivity
QVQLVESGGCLDQAGGSLRLSCAASGITFGPYAMGWYSQAPGKERELVAAITWGGGSTYYADSVKGRFTLSRDNAKNTDYLLMNSLKPEDTADYYCNAEGSTTSRYLPYDYWGQGTQVTVSS | low polyreactivity
QVQLVESGGCLFQAGGSLRLSCAASGFIFGTYAIGWYRQAPGKERELVAAISVGRGSTYYADSVKGRFTISRDNAKNTVYLQMNSLKPEDTAVYYCAAVQLYQKHQITYVAHEYWGHGTQVTVSS | low polyreactivity
QVQLVESGGCLVKAGGSLRLSCAASGSTFHYYPMGWYRQAPGKERELFAAISTSGVRTYYADSVKGRFTISRDNAKNTVYLQMNRLKPEDTAVYYCAARRGYVKGKTYDYWGQGSQVTVSS | high polyreactivity
QVQLVESGGCLVQAGGRLRLSFAASGLTFEQYAMGWYRQAPGKERELVPAISRRGTSTYYADSVKGRFTISRDNAKNTVFLQMNSLKPEDTAVYYCNAGWWYLGSPFDRDYWGQGTQVTVSS | high polyreactivity
QVQLVESGGCLVQAGGSHRLSCAASGSIFKYYTMGWYRQAPGKERELDAAITTRGTSTNYADSVKGRFTISRDNAKHTVYFQMNSLKPEDTAVYYCAARLSSLISMNYWGQGTQVTVSS | high polyreactivity
QVQLVESGGCLVQAGGSLRISCAASGLTFKGYTMGWYRQAPGKEREFVAAITGGVGSTYYADSVKGRFTISRDNAKNTVYVHMKSLQPEDTAVYYCNSVSYGYTDLYIFYTGYYYWGQGTQVTVSS | low polyreactivity
QVQLVESGGCLVQAGGSLRLICAASGRTFIAKAMGWYRQAPGKERELVAVITLNGGSTYYADSVKGRFTISRDNAKSTVYLQMNSLKPEDTAVYYCAAGRYYNLRATHGYWGQGTQVTVSS | low polyreactivity
QVQLVESGGCLVQAGGSLRLISAASGSTFQRYAIGWYRQAPGKERELVAAITWSNGSTYYADSVKGRFTISRDNAKNTVYLQMISLKPEDTAVYYCAAEVHFGGDYWGQGTQVTVSS | low polyreactivity
QVQLVESGGCLVQAGGSLRLSCAASAFIFVGNDMGLYRQAPGKEREFVAAISSGGTTNYADSVKGRFTISRDNAKNTVYLQMNSLKPEDTAVYYCGADYDYRQGYDSVHLDYWVQGTQVTVSS | low polyreactivity
QVQLVESGGCLVQAGGSLRLSCAASGFIFAYYAMGWYRQARGKERELVAAISYSGSTKYSDSVKGRFTISRDNSKNTVNLQMNSLKPEDTAVYYCAADRVWGTPQAYVPSQFDYWGQGTQVTVSS | low polyreactivity
QVQLVESGGCLVQAGGSLRLSCAASGFILSGNTMGWYRQAPGKERELVAGINDDSSTYYADSVKGGFTISRDNAKNTVYLQMNSLKPEDTAVYYCNAGQSWYPSWYYYWGQGTQVTVSS | low polyreactivity
QVQLVESGGCLVQAGGSLRLSCAASGGIFPGNAMGWYRQAPGKERELVATISYSGGSTYYADSVKGRFTISRDNAKNTVYLQMNSLKPEDTAVYYCAARGYKPTRSRRTEYGYWGQGTQVTVSS | high polyreactivity
QVQLVESGGCLVQAGGSLRLSCAASGIIFDDYAMGWYRQAPGKERELVAAISVSGGSTYYADSVKGRFTISRDNAKNTVYLQMKSLKPEDTAVYYCAARLRQPYSRGNYWGQGTQVTVSS | high polyreactivity
QVQLVESGGCLVQAGGSLRLSCAASGIIFTLYAMGWYRQAPGKEREIVAAISGSGGSTYYADSVKGRFTISRDNAKNTVYLQMNSLKPEDTAVYYCAARGVRGTGLDSRMYYWGQGTQVTVSS | high polyreactivity
QVQLVESGGCLVQAGGSLRLSCAASGIIFYRYAMGWYRQAPGKERELVAAITYSGGRTYYADSVKARFTISRDNAKNTVYLQMNSLKTEDTAVSDCAAAGRFGDYWGQGTQVTVSS | high polyreactivity
QVQLVESGGCLVQAGGSLRLSCAASGITFGRNTMGWSRQAPGKERELVAAIDSGGNTYADSVKGRFTISRDNAKNTVYLQMNSLKPEDTAVYYCAVDGGEFSSYGYWVQGTQVTVSS | low polyreactivity
QVQLVESGGCLVQAGGSLRLSCAASGITFRYYPMGWYRQAPGKERELVATISTNGGTTYYADSVKGRFTISRDNAKNTVYLQMNSLKPEDTAVYYCNRKIYVSSARYPSEYGYWGQGTQVTVSS | high polyreactivity
QVQLVESGGCLVQAGGSLRLSCAASGLIFYTYAMGWYRQAPGKERELVASISSGGDSTYYADSVKGRFTISRDNAKNTVYLQMNSLKPEDTAVYYCNADYYYSYPYTYYYWGQGTQVTVSS | low polyreactivity
QVQLVESGGCLVQAGGSLRLSCAASGLLFYFYAMGWYRQAPGKEREFVAAISSGGDTYYADSVKGRFTISRDNSKNTVYLQMNSLKPVDTAVYYCAVGTVYLTYRGYEYWGQGTQVTVSS | high polyreactivity

Sequence | polyreactivity (PSR sort gate)
QVQLVESGGCLVQAGGSLRLSCAASGNIFGIYTMGLYTHAPGKERELVASIRTGGSTNYADSVKGRFTISRDNAKNTDYLQMNSLKPEDSSVYYCNARKLFSSSYGYWGQGTQVTVSS | high polyreactivity
QVQLVESGGCLVQAGGSLRLSCAASGRIFAWYAMGWYRQAPGKERELVAAISDSGGSTYYADSVKGRFTISRDNAKNTVYLQMNSLKQEDTAVYYCAADQVVYSAYWSDHYDYWGQGTQVTVSS | low polyreactivity
QVQLVESGGCLVQAGGSLRLSCAASGRIFGVYAMGWYRQAPGKERELVAAISEGGGSTNYADSVKGRFTISRDNANNTVYLQMNSLKPEDTAVYYCAATSRTGVRRYYSWGQGTQVTVSS | low polyreactivity
QVQLVESGGCLVQAGGSLRLSCAASGRIFLPYAMVWYRQAPGKERELVASITRRGGTTYYADSVKGRFTISRDNAKNTVYLQMNSLKPADSAVYYCAKESWPYGTRGYYHYEYWGQGTQVTVSS | high polyreactivity
QVQLVESGGCLVQAGGSLRLSCAASGRIFQRYAMGWYRQAPGKERELVAGITSAGGSTYYADSVKGRFTISRDNAKNTVYLQMKRLKPEDTAVYYCNAGGELRYYGYRAGGTTRSYDYWGQGTQVTVSS | low polyreactivity
QVQLVESGGCLVQAGGSLRLSCAASGRIFRTYTMGWYRQAPGKERELVAAITWNGGSTYYADSVKGRFTISRDNAKNTVYLQMNSLKPEDTAVYYCIADRHYSAYPLYDYWGQGTQVTVSS | low polyreactivity
QVQLVESGGCLVQAGGSLRLSCAASGRIFSSYAMGWYRQAPGKERELVAAIRSSGDRTYYADSVKGRFTISRDNAKNTVYFQMNSLKPEDTAVYYCAADLRRFQSYYYWGQGTQVTVSS | high polyreactivity
QVQLVESGGCLVQAGGSLRLSCAASGRISPDYAMGWYRQAPGTERELVATISSGAGTTYYADSVKGRFTISRDNAKNTVYLQMNSLKPEDTAVYYCAAEDPSEFDYWGQGTQVTVSS | low polyreactivity
QVQLVESGGCLVQAGGSLRLSCAASGRTFKQYAIGWSRQAPGKERELVAAITSGGSTYYADSVKGRFTISRDNAKNTVSLHMNSLKPEDNAVYYCNKESYFDTYRRYDSWGQCTQVTVSS | low polyreactivity
QVQLVESGGCLVQAGGSLRLSCAASGRTFPYNVMGWYRQAPGKERELDAGITGSGDSTFYADSVKGRFTISRDNAKNTFYLQMNSLNPDDTSVYYCAARYRTLNDGYIRNYWGQGTQVTVSS | low polyreactivity
QVQLVESGGCLVQAGGSLRLSCAASGRTFRWYAMGWYRQAPGKESELVAAINPGGSTNYADSVKGRFSISRDNAKNTVYLQMNSLKPEDTAVYYCNAAGYDALTHNYYWGQGTQVTVSS | low polyreactivity
QVQLVESGGCLVQAGGSLRLSCAASGRTFYIYAMGWYRQAPGKERELVAAINFSDGSTSYADSVKGRFTISRDNAKHTVYLQMNSLKPEDTAVYYWGQGTKVTVSS | low polyreactivity
QVQLVESGGCLVQAGGSLRLSCAASGRTFYPYAMGWYRQAPGQDRELVAAIRSSGGTTYYADSVKGRFTISRDNAKNTVYLQMNSLKREDTAVYYCAAFVDRQGGYYWGQGTQVTVSS | high polyreactivity
QVQLVESGGCLVQAGGSLRLSCAASGRTLGYYTMGWYRQAPGKERELVATITPGGSTSYADSVKGRFTISRDNAKNTVYLQMNSLKPEDTAVYYCARTRPYYLLYSSNFRYDYWGQGTQVTVSS | high polyreactivity
QVQLVESGGCLVQAGGSLRLSCAASGSIFDVNAMGLYRQAPGKERELVAAISDSGGSTYYADSVKGRFTISRDNAKNTVYLQMNSLKPEDTAVYYCNADWSLYNYYDFDYWGQGTQVTVSS | low polyreactivity
QVQLVESGGCLVQAGGSLRLSCAASGSIFVAYAMGWYRQAPGKERELVAAITGRSGRTYYADSVKGRFTISRDNAKNTVYLQMNSLKPEDTAVYYCAARGYGTDDYDYCGQGTQVTVSS | high polyreactivity
QVQLVESGGCLVQAGGSLRLSCAASGSTFDYYAMGWYTQAPGKERELVAAISSSGSSTYYADSVKGRFTISRDNAKNTVYLQMNSLKPEDTAVYYCAKGTNYRDDYWGQGTQVTVSS | low polyreactivity
QVQLVESGGCLVQAGGSLRLSCAASGSTFGYNAMGWYRQATGKERELVAAITWTGASTYYADSVKGRFTISRDNAKNTVYLKINSLKPEDTEVYYCNRVGYQSMNYWGQGTQVTVSS | low polyreactivity
QVQLVESGGCLVQAGGSLRLSCAASGSTFKTYTMGWYRQAPGKERELVAAITWSGGRTYYADSGKGRFTISRDNAKNTVYLQMNSLKPEDTAVYYCAADWGEEYTRDDYCGQGTQVTVSS | low polyreactivity
QVQLVESGGCLVQAGGSLRLSCAASGSTFRYNAMGWYRPAPGKERELVAAITSSGGRTYYADSVKGRFTISRDNAKNTVYLQMNSLKPEDTAVYYCARRYLSVRGDSWGQGTQVTVSS | high polyreactivity
QVQLVESGGCLVQAGGSLRLSCAASGSTFWGYTMGWYRQAPGKVRELVAAISSDGSTNYADSVKGRFTISRDNAKNTVYLQMNSLKPEDTAVYDCNTVYDPDTGQSDSWGQGTQVTVSS | low polyreactivity
